Assay results from PMC5992459, “Novel DNA Aptamers that Bind to Mutant Huntingtin and Modify Its Activity”.

Key:
[1] = target: endogenous huntingtin from HD60i4 NPC (CAG60/18) (Homo sapiens) (UniProt P42858); assay: streptavidin pull-down; details: NPC lysate; ELISA: 10 mM Tris-HCl pH 8.0, 0.15 M NaCl (TBS), 2 mg/mL BSA block, 1 pmol huntingtin/well, 50 pmol biotin-aptamer, 2 h (RT for coating/blocking); caspase-6 …
[2] = target: Q78-huntingtin caspase-6 C-terminal fragment (270 kDa) (Homo sapiens, UniProt P42858 585-3142); assay: caspase-6 digestion of complex, anti-biotin immunoblot; ELISA: 10 mM Tris-HCl pH 8.0, 0.15 M NaCl (TBS), 2 mg/mL BSA block, 1 pmol huntingtin/well, 50 pmol biotin-aptamer, 2 h (RT for coating/blocking); caspase-6 mapping: aptamer:huntingtin 10:1, 2 h RT, spin column; SLM: 5:1, 2 h RT; details: protein: recombinant; label: 5'-biotin; intramolecular G4
Sequence of Q78-huntingtin caspase-6 C-terminal fragment (270 kDa) (P42858 585-3142): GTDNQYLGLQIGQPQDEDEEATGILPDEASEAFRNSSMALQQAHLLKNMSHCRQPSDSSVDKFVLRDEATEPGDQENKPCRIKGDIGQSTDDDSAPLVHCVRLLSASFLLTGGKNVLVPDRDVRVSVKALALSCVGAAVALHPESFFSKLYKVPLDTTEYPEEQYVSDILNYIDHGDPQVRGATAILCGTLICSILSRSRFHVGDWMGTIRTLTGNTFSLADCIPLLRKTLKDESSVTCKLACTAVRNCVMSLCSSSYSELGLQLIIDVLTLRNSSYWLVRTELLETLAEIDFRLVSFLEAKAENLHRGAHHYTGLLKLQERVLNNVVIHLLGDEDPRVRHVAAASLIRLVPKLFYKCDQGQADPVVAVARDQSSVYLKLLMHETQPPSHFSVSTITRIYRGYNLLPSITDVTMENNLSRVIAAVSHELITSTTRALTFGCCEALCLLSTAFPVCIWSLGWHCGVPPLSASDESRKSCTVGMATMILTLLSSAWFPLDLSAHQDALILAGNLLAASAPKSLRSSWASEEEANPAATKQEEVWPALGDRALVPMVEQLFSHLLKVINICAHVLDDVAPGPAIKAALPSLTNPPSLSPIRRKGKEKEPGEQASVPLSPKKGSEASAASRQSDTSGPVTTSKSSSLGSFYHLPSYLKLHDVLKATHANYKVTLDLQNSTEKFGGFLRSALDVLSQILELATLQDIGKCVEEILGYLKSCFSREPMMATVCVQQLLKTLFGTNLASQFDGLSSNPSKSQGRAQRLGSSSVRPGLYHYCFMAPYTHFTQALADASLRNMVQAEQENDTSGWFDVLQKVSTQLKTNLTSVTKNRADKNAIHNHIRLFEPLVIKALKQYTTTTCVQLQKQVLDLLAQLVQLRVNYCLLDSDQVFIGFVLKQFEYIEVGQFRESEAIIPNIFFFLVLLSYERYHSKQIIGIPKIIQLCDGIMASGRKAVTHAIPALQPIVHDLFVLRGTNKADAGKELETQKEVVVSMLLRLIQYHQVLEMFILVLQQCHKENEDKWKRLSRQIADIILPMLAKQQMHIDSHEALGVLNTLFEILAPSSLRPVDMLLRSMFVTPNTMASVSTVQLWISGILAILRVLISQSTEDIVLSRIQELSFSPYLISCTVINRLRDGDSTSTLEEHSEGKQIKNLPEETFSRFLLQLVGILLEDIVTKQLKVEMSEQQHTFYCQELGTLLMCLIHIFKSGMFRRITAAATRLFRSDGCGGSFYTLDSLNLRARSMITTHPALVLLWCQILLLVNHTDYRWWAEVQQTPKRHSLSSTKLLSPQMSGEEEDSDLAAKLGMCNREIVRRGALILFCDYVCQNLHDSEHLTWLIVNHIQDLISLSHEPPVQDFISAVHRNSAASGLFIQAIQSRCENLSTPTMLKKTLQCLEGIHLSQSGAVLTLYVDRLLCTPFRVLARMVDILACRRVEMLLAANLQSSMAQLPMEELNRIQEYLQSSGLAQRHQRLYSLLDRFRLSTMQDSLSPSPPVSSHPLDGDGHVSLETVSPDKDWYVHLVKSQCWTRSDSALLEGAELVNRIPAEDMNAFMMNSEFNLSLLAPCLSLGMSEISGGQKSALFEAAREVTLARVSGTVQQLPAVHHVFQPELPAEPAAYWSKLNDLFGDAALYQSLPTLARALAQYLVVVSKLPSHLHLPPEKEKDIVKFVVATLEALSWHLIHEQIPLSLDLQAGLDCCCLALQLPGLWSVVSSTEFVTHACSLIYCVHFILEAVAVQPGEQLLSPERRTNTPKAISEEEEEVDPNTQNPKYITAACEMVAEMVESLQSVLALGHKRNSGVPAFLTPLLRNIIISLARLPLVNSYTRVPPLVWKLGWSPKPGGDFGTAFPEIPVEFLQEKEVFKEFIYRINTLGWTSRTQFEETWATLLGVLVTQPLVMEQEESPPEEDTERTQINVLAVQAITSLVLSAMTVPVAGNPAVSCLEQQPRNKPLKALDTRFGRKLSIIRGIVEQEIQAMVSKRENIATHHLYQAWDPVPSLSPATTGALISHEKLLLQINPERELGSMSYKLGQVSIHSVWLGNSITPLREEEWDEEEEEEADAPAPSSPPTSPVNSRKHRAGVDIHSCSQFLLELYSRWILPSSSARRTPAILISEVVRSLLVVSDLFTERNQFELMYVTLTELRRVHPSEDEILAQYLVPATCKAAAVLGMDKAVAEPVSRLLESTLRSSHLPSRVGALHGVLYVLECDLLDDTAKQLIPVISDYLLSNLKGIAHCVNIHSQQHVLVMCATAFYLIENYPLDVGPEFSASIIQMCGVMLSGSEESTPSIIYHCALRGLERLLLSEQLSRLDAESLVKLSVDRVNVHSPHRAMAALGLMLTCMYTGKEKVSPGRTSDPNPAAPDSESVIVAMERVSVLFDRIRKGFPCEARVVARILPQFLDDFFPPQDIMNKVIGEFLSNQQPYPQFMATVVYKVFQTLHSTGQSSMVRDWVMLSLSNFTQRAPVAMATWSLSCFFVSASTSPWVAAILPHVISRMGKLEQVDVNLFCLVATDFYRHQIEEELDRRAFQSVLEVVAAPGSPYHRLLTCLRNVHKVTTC

Molecule | binding signal (fold vs HD17m8) [1] | binding result [2]
GGGAGGGAGGGAGGGAGGGAGGGAGGGAGGGAGGGA [MS3] | 3.6 | 
AGGGGTGGGGAGGGGTGGGGA (structured_DNA) [MS1] |  | binds
AGGGGTGGGGAGGGGAGGGGA (structured_DNA) [MS2] |  | binds
GGGAGGGAGGGAGGGAGGGAGGGAGGGAGGGAGGGA (structured_DNA) [MS3] |  | binds
TGGGGAGGGGAGGGGCGGGGT (structured_DNA) [MS4] |  | binds
